Assay results reported in the nanobody polyreactivity screen of Harvey et al. (2022).

Test: yeast display, Sf9 membrane polyspecificity reagent, FACS + sequencing; frameworks hold sequencing errors
How it was run: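 Synthetic nanobody libraries on Saccharomyces cerevisiae BJ5465 were galactose-induced for 36–48 hours, stained 1 hour at 4 °C with 10% biotinylated, detergent-solubilized Sf9 membrane reagent and enriched on streptavidin microbeads. FACS then separated cells into low and high (top ~1%) gates by anti-HA (expression) and streptavidin (reagent binding) fluorescence. Genes were colony-PCR amplified, MiSeq 2 × 250 sequenced and CDR-length filtered. A clone's polyreactivity label is that of its gate of origin.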

| Sequence | polyreactivity (PSR sort gate) |
| --- | --- |
| QVQLVESVGGLVQAGGSLRLSCAASGITFSTNAMGWYRQAPGKERELVAAITSVTSTYYADSVKGRFTISRDNAKNTVYLQMNSLKPEDTAVYYCASRLSRWPYFYEYNYWGQGTQVTVSS | low polyreactivity |
| QVQLEESGGGLVQAGGSLRLTCAASGRIFYRYAMGWYRQAPGKEREFVAAISGTGGSTYYADSVKGRFTISRDNAKNTVNLQMNSLKPEDTAVYYCAAVSYYSSGYDYWGQGTQVTVSS | high polyreactivity |
| QVQLVESGGGLVQAGGSLRLRCAASGLIFGTYAMGWYRQAPGKERELVATISQIGGSTYYADSVKGRFTISRDNAKNTVYLEMNSLKPEETAVYYCAVDGGEFSSYGYWGQGTQVTVSS | low polyreactivity |
| QAQLQESGGSLLQAGGGLRLSCAASGYISVGSVMGWYRQAPSKERELVASIDQGANTNYADSVKGRYTISRDNAKNNVYLQMNSLKPEDSAVYYCATETTYILNYWGQGTQVTVSS | low polyreactivity |
| QVQLQESGGGLVQAGGSLRLSCAASGYISLAQTKGWYRQEPGKEREFVASIALGSSTYYTDSVKGSFTISRDNAKTTVYLQMNSVKPEDTAVYYCAARVGASYAHDFWGQGTQVTVSS | low polyreactivity |
| QVQLVESGGGLVQAGGSLRLSCAASGRIIVLYAMGWYRQAPGKERELVASIRSGGSTNYADSVKGRFTISRDNAKNTVYLQMNSLKPEDTAVYYCAARIRSVVPFDMDYWGQGTQVTVSS | low polyreactivity |
| QVQLQESGGGLVQAGGGLRLSCAASGTISGPHVMGWYRQAPGKEREFVAAINVGANTYYADNVKGRFTISRDNAKNTVYLQMNSLNPEDTAVYYCAAVYYGDIGHEYWGQGTQVTVSC | low polyreactivity |
| QVQRVESGGGLVQAGGSLRLRCAASGSIFYQYALGWYRQARGKEREWVAAISRSGGRTYYADSVKGRFTISRDNAKNTVYLQMNSLKPEDTAVYYCAAGTSWPWYQRDYWGQGTQVTVSS | low polyreactivity |
| QVQLVESGGGLVQAGCSLRLSCAASGFIFSRYTMGWYRQAPGKERELVAAISRRGGNTYYADSVKGRFTISRDNAKNTVYLQMNSLKPEDTAVYYCADEYNQSFDYWGQGTQVTVSS | low polyreactivity |
| QVQLVESGGGLVQAGGSLRLSCADSGITLQSYAMGWYRQAPGKERELVAAITSGSSTHYADSVKGRFTISRYNAKYTVYLQMYSLKPEDTAVYYCAADRVYFGDLFVVYYFIQYDFWGQGTQVTVSS | low polyreactivity |
| QLQLVESCGGLVQAGGSLRLSCAASGSILLNNAMGWYRQAPGKERELVAAISLSGGGSTYYADSVKGRFTLSRDNAKNTVYLQMNSLIPEDTAVYYCNADDPYLYYDSYDYWGQGTQVTVSS | low polyreactivity |
| QVQLVESGGGLVQAGGSLRLSCAASGFTFYIYAMGWYRQAPGKERELVARISSGGRTYYADSVKGRFTISRDNAKNTVYLQMNRLKPEDTAVYDCHFWYGSWGQGTQVTVSS | low polyreactivity |
| QVQLVESGGGLVQAGGSLRLSCAASGSIFRYYAMGWYRQAPGKERELVAVITRGGSTYYADSVKGRFTISRDNAKNTVYLQMNSLKPEDTAVYYCAADYWPACMDRGYWGQATQVTVSS | low polyreactivity |
| QVQLVESGGGLVQAGGSLRLSCAASGRIFRWYAMGWYRQAPGKERELVATISSSGRTNYADSVKGRFTISRDNAKNTVYLQMNSLKPEDTAVYYCNADGGDWFGYVGMDYWGQGTQVTVSS | high polyreactivity |
| QVQLVESRGGLVQAGGSLRISCAASGNIFLDYVMGWSRQAPGKERELVAAINSGGSTYYADSVKGRFTISSDNAKNTVYLQMNSLKPEDTAVYYCAADDYYKFDYWGQGTQVTVSS | low polyreactivity |
| QVQLVESGGGLVQAGGSLRLSCAASGRIFKRNAMGWYRQAPGKERELVAAISSGTSTNYADSVKGRFTISRDNAKNTVYLQMNSLKPEDTAVYYCAVRPVDYRGYYYWGQGTQVTVSS | high polyreactivity |
| QVQLVESGGGLVQAGGSLRLSCAASGSIFTWNAMGWYRQAPGKERELVAAISWIGDSTYYADSVKGRFTISRDNAKNTVYLQMNSLKPEDTAVYYCAAEYAQGSRELESWGQGTQVTVSS | low polyreactivity |
| QVQLVESGGGLVQAGGSLRLSCAASGITFTSYAMGWYRQAPGKERELVAAISSSGGSTYYADSVKGRFTISRDNAKNTVYLQMNSLKPEDPAVYYCNARPRSRSPRVEYDYWGQGTQVTVSS | high polyreactivity |
| QVQHVESGGRLVQAVGSLRLSCAASGFTFTRHAMGWYRQAPGKERDLVSRISSRGGSTYYADSVKGRFTISRDNAKNTVYLQMNSLKPEDTAVFYCAAPVRKSSYTRYDSWGQGTQVTVSS | high polyreactivity |
| QVQLVESGGGLVQAGGSLRLSCASSGSIFFANAIGWYRQAPGKERELVATISWRGGSTYYAYSVKGRFTISRDIAKNSVYLQKNSLKPEDTAVYYCAAGYYPYWGQGTQLTVSS | low polyreactivity |
| QVQLVESGGGLVQAGGSLRLSCAASGFIFYRNAMGWYRQAPGKERELVAAISGSGGRTYYADSVNGRFTISRDNAKNTVYLQMNSLNPEDTAVYYCNAGLLYRGEYDYWGQGTQVTVSS | high polyreactivity |
| QVHLVESGGGLVQAGGSLRLSCAASGITFLKYAMGWYRQAPGKERELVARITSGGRTYYADSVKGRFTISRDNAKNTVYLLMNSLKPEDTAVYYCNAVKSYASLYAGFYYWGQGTHVTVSS | high polyreactivity |

| Sequence | polyreactivity (PSR sort gate) |
| --- | --- |
| QVQLVESGRGLVQAGGSLRLSSAASGRIFPTNAMGWYRQAPGKERELVASIDSGDITHYADSVKGRFTISRDNAMNTVYLQMISLKPEDTAVYYCAKRPQAQYTYITGDDYWGQGTQVTVSS | low polyreactivity |
| QVQLVESGGGLVQAGGSLRLSCAASGFTFRGNAMGWYRQAPVKERELVAAITSSDDSTYYADSVKGRFTISRDLSKNTVYLQMNSLKPEDTAVYYCAAVANGYWTYEYWGQGTQVTVSS | low polyreactivity |
| QVQLVESGGGLVQAGGSLRLSCAASGRTFRRNAMGWYRQAPGKERELVAPISRGGSTNYADSVKGRFSISRDNAKNTVYLQMNSMKPEDTAVFYCAARYYYRYNYWGQGTQVTVSS | high polyreactivity |
| QVQLVESGGGLVQAGGSLRLSCAASGLTFADYAMGWYRQAPGKERELVAAISRRGGSTYYADSVKGRFTISRDNAKNTVYLQMNSLKPEDTAVYYCAAGNRVNRFDYWGQGTQVTVSS | high polyreactivity |
| QVQLVESGGGLVQAGGSLRLSCAASGSTFGPNAMGWYRQAPGKERELVATISFRGGTTYYADSVKGRFTISRDHAKNTVYLQMNSLKPEDTAVYYCAVKVGYVRLLYHYYYWGQGTQGTVSS | high polyreactivity |
| QVQLVESGGGLVQAGGSLRLSCAASGSTLIRNVMGWYRQAPGKERELVAAINTRGTTTYYADSVKGRITISRDNAKNTVYLQMNSLKPEDTAVYYCAARTPHYSYGYWGQGTHVTVSS | high polyreactivity |
| QVQLVESGGGLVQAGCSLRLSCAASGFTFHTYAMGWYRQAPGKERELVAAITGRGGSTYYADSVKGRFTISRDNAKNTVYLQMNSLKPEDTAVYYCTAYRRGWGDRMYYWGLGTQVTVSS | high polyreactivity |
| QVQIVESGGGLVQAGGSLRLSCAASGRIFFQYALGWYRQAPGKERELVAAIRYSGGSTYYADSVKGRFTISRDNAKNTVYLQMNSLKPEDTAVYYCAARYTRRHYDYWGQGTQVTVSS | high polyreactivity |
| QVQLVESGGGLVQAGGSLRLSCAASGGTFNTNAMGWYRQAPGKERELVATIRGGVITTYADSVKGRFTISRDNAKNTVYLQMNSLKPEDTAVYYCAVDDLRGYDYWGQGTQVTVSS | low polyreactivity |
| QVQLVESGGGLVQAGGSLRLSCAASGRTFDPNAMGWYRQAPGKERELVAVITARGGNTSYADSVKGRFTISRDNAKNTVYLQMISLKPEDTAVYYCAAPADDTVHYQNYYWGQGTQVTVSS | low polyreactivity |
| QVQLVESGGGLVQAGGSLRLSCAASGRIFRRYAMGWYRQAPGKERELVAAISSGGSTNYADSVKGRFTLSRDNAKNTVYLQMNSLKPEDTAVYYCAARRTATTSRAYYYWGQGTQVTVSS | high polyreactivity |
| QVQLVESGGGLVQAGGSLRLSCAASGSTFHVYAMGWYRQAPGKERELVAGITSSGYSTYYADSVKGRFTISRDNAKNTVYLKMNSLKPEETAVYYCNADIRGPYYYHRYDYWGQGTLVTVSS | low polyreactivity |
| QVQLVESGGGLVQAGGSLRLICAASGNIFVYYALGWYRQAPGKERELVAAITSDVSTYYADSVKGRFTISRDNAKNTVYLQLNSLKPEVTAVYYCATTGYGSYVIYWGQGTQVTVSS | low polyreactivity |
| QVQLVESGGGLVQAGGSLRLSCAPSARTFVYNAMGWYRQAPGKERELVAAIDGGGDRTYYADSVKGRFTISRDNAKYTVYIQMYSLKPEDTAVYYCARDPGDTYYYSYPEGDYWGQGTQVTVSS | low polyreactivity |
| QVQLVESGGGLVQAGGSLRLSCAASGFTFDENAMGWSRQAPGINYSRASTYYADSVKGRFTISRDNAKNTVYLQMISLKPEDTAVYYCNKASYWGSGFDYWGQGTQVTVSS | low polyreactivity |
| QVQLVESGGGLVQAGGSLRLSCAASGSTFVNNAMGWYRQAPGKERELVASITVGGSTYYADSVKGRFTISRDNAKNTVYLQMNSLKPEDTAVYYCNVQYSYYASDYDYWGQGTQVTVSS | low polyreactivity |
| QVQLVESGGGLVQAGGSLRLSCAASGIIFYPYAMGVYRKAPGKEREMVADITSGGGTNYADSVKGRFTISRDYAKNTVYLKMNSLKPEDTAVYYCAAEVRGYHWGTYYEFYYWGQGTQVTVSS | low polyreactivity |
| QVQLVESGGGLVQAGGSLRLSCSASGSTFRWNAMGWYRQAPGKERELVASITSGGSTNYADSVKGRFTMSRDNAKNTVYLQLNSLKPEDTAVSYCNADVRRYSNYVWLYDYWGQGTQVTVSS | low polyreactivity |
| QVQLVESGGGLVQAGGSLRLSCAASGITFDLYDMGWYRQAPGKERELVAAITDADSTYYADSVKGRFTISRDNAKNTVYLQMNSLKPADTAVYYCAADFFYSVYSGHYDYWGQGTQVTVSS | low polyreactivity |
| QVQLVESGAGLVQAGGSLRLSCAASGSTFSYYTMGWYRHAPGKERELVAAITSGGPTNYADSVKGRFTISRDNAKNTVYLQMNSLKPEDTAVYYCAAALYYGWGYYYWGQGTQVTVSS | low polyreactivity |
| QVQLVESGGGLVQAGGRLRLSCAASGSTFIYYAMGWYRQAPGKERELVAAITGRGTRTYYADSVKGRFTISRDNAKNTVYLQMNSLKPEDTAVYYCNTLQTYLYDYWGQGTQVTVSS | high polyreactivity |
